According to the supplement of paper PMC9112550, “Optimization of the antimicrobial peptide Bac7 by deep mutational scanning” (BMC Biology, 2022):

system: Escherichia coli TOP10; assay: shrunken log2 fold change of peptide-encoding DNA abundance (4.5 h post-induction vs induction); higher = less antimicrobial activity (less host growth inhibition); conditions: time post-induction: 4.5 h; library: site-saturation at positions 5, 18, 19, 20
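Note: peptides expressed intracellularly from a pBAD plasmid library in pooled LB shake-flask culture, induced with 0.3% L-arabinose, DNA abundance read by NGS, three biological replicates, DESeq2 with apeglm shrinkage.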

Sequence | shrunken log2 fold change
RRIRGRPPRLPRPRPRPRSLPRP | 0.778
RRIRGRPPRLPRPRPRPRTMPRP | 0.539
RRIRGRPPRLPRPRPRPRTWPRP | 0.317
RRIRGRPPRLPRPRPRPRVLPRP | 0.367
RRIRGRPPRLPRPRPRPRWTPRP | 0.43
RRIRGRPPRLPRPRPRPRYPPRP | 0.232
RRIRGRPPRLPRPRPRPSCCPRP | 0.722
RRIRGRPPRLPRPRPRPSCDPRP | 0.543
RRIRGRPPRLPRPRPRPSCKPRP | 0.319
RRIRGRPPRLPRPRPRPSCPPRP | -0.12
RRIRGRPPRLPRPRPRPSFMPRP | 0.0373
RRIRGRPPRLPRPRPRPSFRPRP | 0.0601
RRIRGRPPRLPRPRPRPSFSPRP | 0.154
RRIRGRPPRLPRPRPRPSGSPRP | 0.128
RRIRGRPPRLPRPRPRPSGYPRP | -0.167
RRIRGRPPRLPRPRPRPSHDPRP | 0.136
RRIRGRPPRLPRPRPRPSHFPRP | -0.621
RRIRGRPPRLPRPRPRPSHGPRP | 0.487
RRIRGRPPRLPRPRPRPSHYPRP | -0.0921
RRIRGRPPRLPRPRPRPSKHPRP | -0.0347
RRIRGRPPRLPRPRPRPSKVPRP | -0.116
RRIRGRPPRLPRPRPRPSKYPRP | 0.00351
RRIRGRPPRLPRPRPRPSMDPRP | 0.0712
RRIRGRPPRLPRPRPRPSNTPRP | -0.023
RRIRGRPPRLPRPRPRPSRNPRP | 0.0365

Sequence | shrunken log2 fold change
RRIRGRPPRLPRPRPRPSRPPRP | 0.624
RRIRGRPPRLPRPRPRPSRWPRP | 0.489
RRIRGRPPRLPRPRPRPSTPPRP | 0.468
RRIRGRPPRLPRPRPRPSTWPRP | 0.22
RRIRGRPPRLPRPRPRPSWMPRP | -0.208
RRIRGRPPRLPRPRPRPSWPPRP | 0.384
RRIRGRPPRLPRPRPRPSWRPRP | 0.477
RRIRGRPPRLPRPRPRPTAKPRP | 1.92
RRIRGRPPRLPRPRPRPTCQPRP | 0.71
RRIRGRPPRLPRPRPRPTDPPRP | 0.687
RRIRGRPPRLPRPRPRPTEMPRP | 0.814
RRIRGRPPRLPRPRPRPTFRPRP | -0.135
RRIRGRPPRLPRPRPRPTGLPRP | 0.885
RRIRGRPPRLPRPRPRPTHKPRP | 0.854
RRIRGRPPRLPRPRPRPTITPRP | 0.526
RRIRGRPPRLPRPRPRPTIYPRP | 0.365
RRIRGRPPRLPRPRPRPTKAPRP | 1.03
RRIRGRPPRLPRPRPRPTMKPRP | 0.757
RRIRGRPPRLPRPRPRPTMLPRP | 0.52
RRIRGRPPRLPRPRPRPTMWPRP | 0.757
RRIRGRPPRLPRPRPRPTNAPRP | 0.923
RRIRGRPPRLPRPRPRPTNEPRP | 0.46
RRIRGRPPRLPRPRPRPTNGPRP | 0.254
RRIRGRPPRLPRPRPRPTNVPRP | 0.141
RRIRGRPPRLPRPRPRPTPPPRP | 1.06

Sequence | shrunken log2 fold change
RRIRGRPPRLPRPRPRPTSLPRP | 0.542
RRIRGRPPRLPRPRPRPTTQPRP | 0.429
RRIRGRPPRLPRPRPRPTTRPRP | 0.79
RRIRGRPPRLPRPRPRPTVNPRP | 0.597
RRIRGRPPRLPRPRPRPTYGPRP | 0.372
RRIRGRPPRLPRPRPRPTYNPRP | 0.0375
RRIRGRPPRLPRPRPRPVAWPRP | 0.508
RRIRGRPPRLPRPRPRPVCIPRP | 0.344
RRIRGRPPRLPRPRPRPVCMPRP | 0.406
RRIRGRPPRLPRPRPRPVCPPRP | 0.385
RRIRGRPPRLPRPRPRPVFAPRP | 0.696
RRIRGRPPRLPRPRPRPVFSPRP | 0.0314
RRIRGRPPRLPRPRPRPVHPPRP | 2.04
RRIRGRPPRLPRPRPRPVIIPRP | 2.29
RRIRGRPPRLPRPRPRPVKLPRP | -0.0292
RRIRGRPPRLPRPRPRPVLQPRP | 0.142
RRIRGRPPRLPRPRPRPVLWPRP | 1
RRIRGRPPRLPRPRPRPVNCPRP | 0.139
RRIRGRPPRLPRPRPRPVNTPRP | 0.0713
RRIRGRPPRLPRPRPRPVPFPRP | 0.289
RRIRGRPPRLPRPRPRPVPTPRP | 0.865
RRIRGRPPRLPRPRPRPVRNPRP | 0.308
RRIRGRPPRLPRPRPRPVSRPRP | 0.491
RRIRGRPPRLPRPRPRPVTFPRP | 0.172
RRIRGRPPRLPRPRPRPVTHPRP | 0.106

Sequence | shrunken log2 fold change
RRIRGRPPRLPRPRPRPVTSPRP | 0.203
RRIRGRPPRLPRPRPRPVVEPRP | 0.937
RRIRGRPPRLPRPRPRPVVIPRP | -0.253
RRIRGRPPRLPRPRPRPVWTPRP | 0.674
RRIRGRPPRLPRPRPRPVYKPRP | 0.0688
RRIRGRPPRLPRPRPRPWCIPRP | -0.153
RRIRGRPPRLPRPRPRPWEFPRP | -0.0208
RRIRGRPPRLPRPRPRPWFDPRP | -0.0883
RRIRGRPPRLPRPRPRPWGKPRP | -0.0896
RRIRGRPPRLPRPRPRPWHAPRP | 0.281
RRIRGRPPRLPRPRPRPWHFPRP | -0.0456
RRIRGRPPRLPRPRPRPWHKPRP | -0.299
RRIRGRPPRLPRPRPRPWHMPRP | -0.345
RRIRGRPPRLPRPRPRPWHSPRP | 0.0143
RRIRGRPPRLPRPRPRPWHVPRP | -0.0733
RRIRGRPPRLPRPRPRPWKFPRP | -0.211
RRIRGRPPRLPRPRPRPWKGPRP | 0.22
RRIRGRPPRLPRPRPRPWLGPRP | 0.245
RRIRGRPPRLPRPRPRPWLVPRP | 0.422
RRIRGRPPRLPRPRPRPWMDPRP | 0.166
RRIRGRPPRLPRPRPRPWMGPRP | -0.0634
RRIRGRPPRLPRPRPRPWMVPRP | 0.213
RRIRGRPPRLPRPRPRPWNKPRP | -0.306
RRIRGRPPRLPRPRPRPWNRPRP | -0.0647
RRIRGRPPRLPRPRPRPWNSPRP | -0.00154

Sequence | shrunken log2 fold change
RRIRGRPPRLPRPRPRPWNVPRP | -0.0303
RRIRGRPPRLPRPRPRPWPCPRP | 0.373
RRIRGRPPRLPRPRPRPWPEPRP | 0.29
RRIRGRPPRLPRPRPRPWPHPRP | 0.074
RRIRGRPPRLPRPRPRPWPSPRP | 0.258
RRIRGRPPRLPRPRPRPWQSPRP | 0.161
RRIRGRPPRLPRPRPRPWRWPRP | 0.656
RRIRGRPPRLPRPRPRPWTKPRP | 0.0647
RRIRGRPPRLPRPRPRPWTTPRP | 0.00743
RRIRGRPPRLPRPRPRPWVKPRP | 0.0642
RRIRGRPPRLPRPRPRPWWTPRP | -0.124
RRIRGRPPRLPRPRPRPWWYPRP | -0.119
RRIRGRPPRLPRPRPRPWYAPRP | -0.249
RRIRGRPPRLPRPRPRPWYFPRP | -0.417
RRIRGRPPRLPRPRPRPYANPRP | 0.0266
RRIRGRPPRLPRPRPRPYCGPRP | -0.349
RRIRGRPPRLPRPRPRPYCPPRP | -0.333
RRIRGRPPRLPRPRPRPYCWPRP | 0.0345
RRIRGRPPRLPRPRPRPYEMPRP | 0.0132
RRIRGRPPRLPRPRPRPYGLPRP | 0.0992
RRIRGRPPRLPRPRPRPYHCPRP | -0.0643
RRIRGRPPRLPRPRPRPYHDPRP | -0.0405
RRIRGRPPRLPRPRPRPYIDPRP | 0.093
RRIRGRPPRLPRPRPRPYKDPRP | -0.322
RRIRGRPPRLPRPRPRPYKLPRP | -0.481

Sequence | shrunken log2 fold change
RRIRGRPPRLPRPRPRPYLVPRP | 0.15
RRIRGRPPRLPRPRPRPYLYPRP | -0.215
RRIRGRPPRLPRPRPRPYMHPRP | -0.355
RRIRGRPPRLPRPRPRPYMPPRP | -0.191
RRIRGRPPRLPRPRPRPYNYPRP | -0.129
RRIRGRPPRLPRPRPRPYRVPRP | -0.0183
RRIRGRPPRLPRPRPRPYSDPRP | -0.11
RRIRGRPPRLPRPRPRPYSLPRP | -0.158
RRIRGRPPRLPRPRPRPYTCPRP | -0.0226
RRIRGRPPRLPRPRPRPYTSPRP | -0.278
RRIRGRPPRLPRPRPRPYWLPRP | -0.0478
RRIRGRPPRLPRPRPRPYYCPRP | -0.172
RRIRGRPPRLPRPRPRPYYWPRP | -0.25
RRIRHRPPRLPRPRPRPACHPRP | -0.2
RRIRHRPPRLPRPRPRPADGPRP | -0.279
RRIRHRPPRLPRPRPRPAEHPRP | -0.144
RRIRHRPPRLPRPRPRPAFTPRP | -0.311
RRIRHRPPRLPRPRPRPAHPPRP | 0.175
RRIRHRPPRLPRPRPRPAIDPRP | 0.178
RRIRHRPPRLPRPRPRPAIKPRP | 0.00883
RRIRHRPPRLPRPRPRPAKFPRP | -0.139
RRIRHRPPRLPRPRPRPALFPRP | -0.0554
RRIRHRPPRLPRPRPRPALLPRP | 0.284
RRIRHRPPRLPRPRPRPAMKPRP | 0.0279
RRIRHRPPRLPRPRPRPANFPRP | -0.0325
